# Patent publication US20120052007A1, “PERIPHERAL BLOOD SPARC BINDING ANTIBODIES AND USES THEREOF” (ABRAXIS BIOSCIENCE, LLC, priority 2010, published 2012)
# “Also recorded” adds a separate entry of the source.
# Key:
# HT29 (colon) = conditions: for Tumor growth inhibition (TGI): HT29 xenograft, versus control group at euthanasia of control animals
# Description: Female and male athymic NCr-nu mice between 5 and 6 weeks of age weighing approximately 20 g were purchased from Harlan, Inc. (Madison, Wis., USA). Human cancer cells HT29 (colon), PC3 (prostate), and MDA-MB-231 (breast) were propagated in cell culture and implanted subcutaneously at one million cells per flank of female (for MDA-MB-231 and HT29) or male (for PC3 prostate tumor) nude mice and allowed to grow to approximately 60-100 mm^3 before treatment was initiated. Treatments included 5-fluorouracil (5FU), docetaxel (Taxotere®), albumin-bound paclitaxel (nab-paclitaxel), nab-paclitaxel plus suntinib malate (Sutent®), or nab-paclitaxel plus bevacizumab (Avastin®) with or without exogenously administered SPARC). Control animals for each xenograft were administered PBS. The longest (length) and shortest (width) tumor diameters (millimeter) and tumor depth were measured twice weekly. The tumor volume was calculated with the formula: tumor volume (mm3)=width×length×depth. Tumor growth inhibition (TGI) was defined as the percentage of tumor volume reduction compared with the control group at the time of euthanasia for the control animals. Tumor doubling time was defined as the time required for the tumor volume to double […]. Animal weights were measured twice weekly. Statistical analysis was performed using the Prism program (GraphPad, San Diego, Calif., USA). Analysis of variance (ANOVA) statistic was used to compare tumor growth curves.
# [1] = target: T1, recombinant human SPARC (Bio1-SPARC) (Homo sapiens, UniProt P09486); assay: ELISA binding to recombinant human SPARC (Bio1-SPARC); conditions: for binding to Bio1-SPARC compared with HTI-SPARC (ELISA): Bio1-SPARC versus human platelet SPARC (FIG. 9)
# T1 sequence (P09486 18-303): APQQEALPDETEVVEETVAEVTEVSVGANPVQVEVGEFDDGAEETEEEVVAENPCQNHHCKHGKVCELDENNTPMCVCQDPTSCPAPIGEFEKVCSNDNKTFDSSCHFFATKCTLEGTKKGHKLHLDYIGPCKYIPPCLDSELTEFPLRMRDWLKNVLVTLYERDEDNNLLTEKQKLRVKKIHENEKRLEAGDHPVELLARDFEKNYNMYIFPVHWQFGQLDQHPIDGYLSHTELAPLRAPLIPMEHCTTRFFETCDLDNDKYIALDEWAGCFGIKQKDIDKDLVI
# Protocol: The ability of Imm1 through Imm12 (the mouse-derived anti-human SPARC antibodies) to bind recombinant human SPARC (Bio 1-SPARC) was characterized by multiple ELISA assays performed at various stages of purification. FIG. 7 presents the results of an ELISA assay performed on a serial dilution (1:1, 1:10, and 1:100) of antibody supernatants prior to purification. […] Another ELISA assay was performed with the purified antibodies (FIG. 8) at concentrations of 0.04 μg/mL, 0.2 μg/mL, 1 μg/mL, and 5 μg/mL. […] An additional ELISA was performed to compare the binding of the mouse derived Immseries antibodies to two different varieties of SPARC: Bio1-SPARC, and human platelet SPARC (HTI-SPARC) (FIG. 9).
# ELISA assays were also used to characterize the SPARC binding of the fully human SPARC binding antibodies, Imm13 and Imm14. […] Surface plasmon resonance binding assays, performed on the Biacore 3000® (GE/Biacore International AB, Uppsala, Sweden), tested the binding of Fab 16 to both varieties of SPARC immobilized on a sensorchip (FIGS. 11 and 12).
# [2] = tested on: recombinant human SPARC protein; assay: Tube Formation Assay (AngioKit) with SPARC and SPARC binding antibodies; assay type: cell-based; conditions: 300 μg/mL antibody with 10 μg/mL recombinant human SPARC
# Protocol: This assay was performed using the TCS Cellworks human AngioKit model kit (TCS-ZHA-1000, TCS Cell Works, Buckingham, UK) as described in Example 10 above. The media contained 10 μg/mL recombinant human SPARC protein. The media also contained 300 μg/mL of one of the above prepared mouse SPARC binding monoclonal antibodies (Imm12, Imm14, mHTI), or a control (mouse IgG).
# To examine the effect of SPARC on tubule formation, and interference with that function by SPARC binding monoclonal antibodies, the number of tubules formed and their length was evaluated by light microscopy.
# denatured human SPARC = target: T2, denatured human SPARC (Homo sapiens, UniProt P09486); assay: Western blot against denatured SPARC; assay type: binding; conditions: SDS polyacrylamide gel
# T2 sequence (P09486 18-303): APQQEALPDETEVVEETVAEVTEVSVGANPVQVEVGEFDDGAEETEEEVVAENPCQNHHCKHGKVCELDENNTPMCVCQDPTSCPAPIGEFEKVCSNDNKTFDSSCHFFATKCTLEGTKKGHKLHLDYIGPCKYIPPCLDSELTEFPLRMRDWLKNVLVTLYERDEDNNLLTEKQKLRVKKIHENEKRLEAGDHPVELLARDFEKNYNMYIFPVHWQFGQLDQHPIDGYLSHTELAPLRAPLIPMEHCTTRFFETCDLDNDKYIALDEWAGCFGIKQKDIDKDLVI
# Description: Western blotting was used to determine whether the Imm series antibodies bind to linear or conformational epitopes. In this analysis, SPARC protein was run on a polyacrylamide gel in the presence of SDS. Accordingly, the SPARC protein on the gel was in its denatured form. The Imm series antibodies were used as primary antibodies and were then probed with goat anti-mouse IgG. BSA was used as a negative control.
# SPARC [3] = target: T3, SPARC (Homo sapiens, UniProt P09486); assay: ELISA binding to human SPARC (FIG. 16); conditions: ELISA (FIG. 16)
# T3 sequence (P09486 18-303): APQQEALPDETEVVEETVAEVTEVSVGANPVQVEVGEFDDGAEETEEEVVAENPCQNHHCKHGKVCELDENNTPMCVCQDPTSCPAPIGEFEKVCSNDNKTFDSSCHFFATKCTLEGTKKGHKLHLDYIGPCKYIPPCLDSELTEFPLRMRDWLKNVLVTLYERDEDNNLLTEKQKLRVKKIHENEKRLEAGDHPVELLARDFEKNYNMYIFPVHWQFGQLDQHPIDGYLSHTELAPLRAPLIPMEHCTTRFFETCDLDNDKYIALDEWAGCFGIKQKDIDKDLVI
# mouse SPARC = target: T4, mouse SPARC (Mus musculus, UniProt P07214); assay: ELISA binding to murine SPARC (FIG. 16); conditions: ELISA (FIG. 16)
# T4 sequence (P07214 18-302): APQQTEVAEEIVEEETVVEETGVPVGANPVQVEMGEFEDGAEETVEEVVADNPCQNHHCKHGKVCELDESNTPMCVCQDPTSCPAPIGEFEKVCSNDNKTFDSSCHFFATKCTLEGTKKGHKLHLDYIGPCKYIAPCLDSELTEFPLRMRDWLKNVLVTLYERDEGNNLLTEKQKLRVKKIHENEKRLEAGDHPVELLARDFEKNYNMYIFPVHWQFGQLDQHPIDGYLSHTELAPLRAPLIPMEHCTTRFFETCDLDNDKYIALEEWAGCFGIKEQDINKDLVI
# HT29 colon xenografts = assay: Tumor localization of Alexa 680 labeled antibodies in HT29 xenografts; assay type: in vivo, mice; conditions: 200 ug/mouse i.v. day 1, Alexa 680 label, followed 36 days
# Protocol: Nude mice implanted with subcutaneous HT29 colon xenografts were treated with Imm series antibodies labeled with labeled with Alexa 680 fluorescent dye at dose of 200 ug/mouse. The labeled Imm antibodies were formulated in saline and administered intravenously on day 1. The fluorescent signal was followed in these mice over the course of 36 days.
# [4] = tested on: LL/2 (Lewis Lung Carcinoma); assay: LL/2 Lewis Lung Carcinoma survival / lung metastasis model; assay type: in vivo, mice; conditions: 200 μg/mouse i.p. twice weekly for 4 weeks, versus mouse control IgG
# Protocol: C57BL male mice (approx. 6 weeks old) were weighed, and then injected intravenously with approximately 1×10^6 cells (approximately 0.1 mL) of LL/2 (Lewis Lung Carcinoma) with 25-gauge needle. A minimum of 10 animals was used per group. Twice weekly for 4 weeks, each animal in all groups received 200 μg/mouse of a test antibody or mouse IgG. These test articles/antibodies were dosed via intra-abdominal injection into the peritoneal cavity with a 25-27 gauge needle. The first dose was administered within 30 minutes of tumor cell injection.
# Animals were weighed prior to tumor cell injection, and twice weekly prior to dosing. All animals were examined twice daily for mortality/morbidity. At the end of the experiment, the mice were killed, and primary tumors and lungs were removed, fixed, and embedded. Euthanized animals and any animals found dead prior to rigor mortis were necropsied. Plasma and lungs from all animals were collected and weighed at termination. Lungs were infused with and then immersed in 10% Neutral buffered formalin. Tissues were stored for additional gross and histopathologic analysis.
# Animals were administered either mHTI, Imm12, or Imm14. A negative control group was administered mIgG. The antibodies were formulated in PBS and were administered in at dose of 200 μg/mouse, twice weekly, for four weeks. The survival of the animals was then recorded over […].
# SPARC [5] = target: T3, SPARC; assay: ELISA comparing Imm11, Imm12, Imm13, Imm14 binding to human SPARC; conditions: ELISA (FIG. 13)
# Protocol: An ELISA assay was also performed to directly compare the SPARC binding capabilities of selected mouse-derived anti human SPARC antibodies, Imm11 and Imm12, to the fully human Imm13 and Imm14, the results of which are presented in FIG. 13.
# [6] = antibody supernatants prior to purification, dilutions 1:1, 1:10, 1:100 (FIG. 7)
# [7] = purified antibodies at 0.04, 0.2, 1 and 5 μg/mL (FIG. 8)
molecule,measurement,setting,value
"O=c1[nH]cc(F)c(=O)[nH]1 [Imm 5-FU, 5-fluorouracil]",Tumor growth inhibition (TGI),HT29 (colon),89.8%
same,body weight / tolerability,"HT29 (colon); mouse, in vivo",without decrease in body weight
"bevacizumab: anti-VEGF antibody, Avastin",Tumor growth inhibition (TGI),HT29 (colon),75%
"Imm4: mouse-derived anti-human SPARC antibody from hybridoma, IgG1 (κ) (antibody, V domains shown) VH: AASGFAFSSYDMSWVRQTPEKRLEWVAYITSGGGSTYYPDTVKGRFTISRDNAKNTLYLQMSSLKSEDTAMYYCAGSRSWFAYWGQGTTVTV VL: GEGVSFSCRASQSIGTGIHWYQRRTNGSPRLLIKYASESISGIPSRFSGSGSGTDFTLTINSVESEDIADYYCQQSYSWPLTFGAGTKLELK",binding to Bio1-SPARC compared with HTI-SPARC (ELISA),[1],bind Bio1-SPARC significantly better than HTI-SPARC
same,Bio1-SPARC binding (ELISA),[1]; [6],highest Bio1-SPARC binding
same,Bio1-SPARC binding (ELISA),[1]; [7],highest Bio1-SPARC binding
"Imm6: mouse-derived anti-human SPARC antibody from hybridoma, IgG1 (κ) (antibody, V domains shown) VH: TVTGYSITSDSAWNWIRQFPGNKLEWMGHISYSGSTSYNPSLKSRISITRDTSKDQFFLQLNSVTTEDTATYYCARGSYYGNFGFTYWGQGT VL: GETVTITCQASENIASDLAWYQKEGRSPQLLVYEARNLADGVPSRFSGSGSDTLYSLNIHSLQSEDVARYYCQHYYGTPWTFGGGTKPRAN",Bio1-SPARC binding (ELISA),[1]; [6],highest Bio1-SPARC binding
"Imm10: mouse-derived anti-human SPARC antibody from hybridoma, IgG1 (κ) (antibody, V domains shown) VH: AASGFTFSYYGMSWVRQTPDKRLEWVATISSGGSYTYYPDSVKGRFTISRDNSENTLYLQMNSLKSEDTAMYFCARRGSSGDYYGMDYWGQG VL: GEKVTMSCKSSQSLLYSNSQKNYLAWYQQKPGQSPKLLIYWASTRESGVPPRFTGSGSGTDFSLTISSVKAEDLAVYYCQQYYSFPRTFGGG",Bio1-SPARC binding (ELISA),[1]; [6],highest Bio1-SPARC binding
"Imm12: mouse-derived anti-human SPARC antibody from hybridoma, IgG1 (κ), SEQ ID NOs 7 and 14 (antibody, V domains shown) VH: KASGYTFTKYGMNWVKQAPGKGLQWMGWINTNTGEPTYAEEFKGRFAFSLETSASTAYLQINNLENADSATYFCTRGSSYFDYWGQGTTVTV VL: GQRATISYRASKSVSTSGYSYMHWNQQKPGQPPRLLIYLVSNLESGVPARFSGSGSGTDFTLNIHPVEEEDAATYYCQHIRELTRSVEAPSS",effect on SPARC-induced tubule formation,[2],only very slight formation of very short tubules
same,binding to denatured SPARC,denatured human SPARC,binding
same,binding to human SPARC,SPARC [3],specifically bind to human SPARC
same,binding to mouse SPARC,mouse SPARC,not mouse SPARC
same,localization at the tumor site,HT29 colon xenografts,do not localize at the tumor site
same,binding to Bio1-SPARC compared with HTI-SPARC (ELISA),[1],bind both varieties of human SPARC equally well
same,Bio1-SPARC binding (ELISA),[1]; [6],highest Bio1-SPARC binding; also recorded: highest binding overall
same,Bio1-SPARC binding (ELISA),[1]; [7],highest Bio1-SPARC binding
same,inhibition of lung LL/2 metastasis,[4],did not inhibit lung LL/2 metastasis
"Imm13: fully human anti-human SPARC antibody created from Fab6, IgG1 (κ) (antibody, V domains shown) VH: QVQLVQSGGGLVQPGGSLRLSCAASGFTVSSNYMSWVRQAPGKGLEWVSVIYSGGSTYYADSVKGRFTISRDNSKNTLYLQMNSLRAEDTAVYYCARGIAAAGLDYWGQGTLVTVSP VL: ELVLTQPPSVSAAPGQKVTISCSGSSSNIGNNYVYWYQQLPGTAPKLLIYRNNQRPSGVPDRFSGSKSGTSASLAISGLRSEDEADYYCAAWDDSLSGWVFGGGTKLTVL",affinity for SPARC relative to mouse derived Imm11 and Imm12,SPARC [5],higher affinity
"Imm2: mouse-derived anti-human SPARC antibody from hybridoma, IgG1, 2b (κ) (antibody, V domains shown) VH: TVTGYSITSDHAWSWIRQFPGNKLEWMGYISYSGSTSYNPSLKSRVSVTRDTSKNHFFLQLNSVTTEDTATYYCARAAFIGGWFAYWGQGTT VL: GEKVTITCSASSSVSYMHWFQQKPGTSPKLWIYSTPNLASGVPARFSGSGSGTSYSLTISRMEAEDAATYYCQQRSSYPLTFGGGTKLELKQ",localization at the tumor site,HT29 colon xenografts,localizes well
